{
  "source": "the nanobody polyreactivity screen of Harvey et al. (2022)",
  "data": [
    {"experiment": "yeast display, Sf9 membrane polyspecificity reagent, FACS + sequencing; frameworks hold sequencing errors", "in_short": "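After 36–48 hours of galactose induction, yeast (Saccharomyces cerevisiae BJ5465) displaying a synthetic nanobody library were stained at 4 °C for 1 hour with 10% biotinylated, detergent-solubilized Sf9 membrane reagent. Streptavidin microbeads enriched the stained cells before FACS sorting into low and high (top ~1%) gates on anti-HA and streptavidin fluorescence. Each clone's polyreactivity label reflects its gate of origin.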", "values": [
      {"sequence": "QVQLVESGGGLVQAGGSLRLSCAASGSTFTRYAMGWYRQAPGKERELVAAISLSGGDTYYADSVKGRFTISRDNAKNTVYLQMNSLKPEDTAVYYCAARWGYRGYSYEYWGQGTQVTVSS", "polyreactivity (PSR sort gate)": "high polyreactivity"},
      {"sequence": "QVQLVESGGGLVQAGGSLRLSCAASGSTFTRYAMGWYRQAPGKERELVAAISSSAGRTYYADSVKGRFTISRDYAKNTVYLQMKSLKPEDTAVYYCAATRVYAGAQYDYWGQGTKVTVSS", "polyreactivity (PSR sort gate)": "high polyreactivity"},
      {"sequence": "QVQLVESGGGLVQAGGSLRLSCAASGSTFTSYAIGWYRQAPGKERELVAAIRYSGGRTYYADSVKGRFTISRDNAKNTVYFQMNSLKPEDTAVYYCAARSKVYKVGYNYWGQGTQVTVSS", "polyreactivity (PSR sort gate)": "high polyreactivity"},
      {"sequence": "QVQLVESGGGLVQAGGSLRLSCAASGSTFTSYAMGWYRQAPGKERELVAAIRYRGDGTYYADSVKGRCTISRDNAKNTVNLQMNSLKPEDNAVYYCAADTTLQAFIRYRPIGSYDSWGQGTKVTVSS", "polyreactivity (PSR sort gate)": "low polyreactivity"},
      {"sequence": "QVQLVESGGGLVQAGGSLRLSCAASGSTFTSYAMGWYRQAPGKERELVAAIRYRGDGTYYADSVKGRFTISRDNAKNTVYLQMNSLKPEDTAVYYCAADSRVYRGGYIYRYGYWGQGTQVTVSS", "polyreactivity (PSR sort gate)": "low polyreactivity"},
      {"sequence": "QVQLVESGGGLVQAGGSLRLSCAASGSTFTSYAMGWYRQAPGKERELVAAISWRGGSTYYADSVKGRFTISRDNAKNTVYLQMNSLKPEDTAVYYCNAVVRQPHDLDYWGQGTQVTVSS", "polyreactivity (PSR sort gate)": "high polyreactivity"},
      {"sequence": "QVQLVESGGGLVQAGGSLRLSCAASGSTFTSYAMGWYRQAPGKERELVASITRSGGRTYYADSVKGRFTISRDNAKNTVYLQMNSLKPEDTAVYYCARRYPGGYYWGQGTQVTVSS", "polyreactivity (PSR sort gate)": "high polyreactivity"},
      {"sequence": "QVQLVESGGGLVQAGGSLRLSCAASGSTFTVNAMGWYRQAPGKERELVAVIRKSGTSTYYADSVKGRFTISRDNAKNTVYFQMNSLKPEDTAVYYCAGGGPSTLDDYWGQGTQVTVSS", "polyreactivity (PSR sort gate)": "low polyreactivity"},
      {"sequence": "QVQLVESGGGLVQAGGSLRLSCAASGSTFTVYAMGWYRQAPGKEREFVAAITRRGGNTYYADSVKGRFTISRDNAKNTVYLQMNSLKPEDTAVYYCNADSPLNAYYGGRELDYWGQGTQVTVSS", "polyreactivity (PSR sort gate)": "high polyreactivity"},
      {"sequence": "QVQLVESGGGLVQAGGSLRLSCAASGSTFTVYAMGWYRQAPGKERELVAVITGSGGSTYYADSVKGRFTISRDNAKNTVYLQMNSLKPEDTAVYYCAKEPGENWTVSWRDFDYWGQGTQVTVSS", "polyreactivity (PSR sort gate)": "low polyreactivity"},
      {"sequence": "QVQLVESGGGLVQAGGSLRLSCAASGSTFTVYAMRWYRQAPGKERELVADITGGGRTYYADSVKGRFTISRDNAKNTVYLQMNSLKPEDTAVYYCAKKYSWRYARVYSLHFDYWGQGTQVTVSS", "polyreactivity (PSR sort gate)": "high polyreactivity"},
      {"sequence": "QVQLVESGGGLVQAGGSLRLSCAASGSTFTWNAMGWYRQAPGKERELVAAISGDGGSTYYADSVKGRFTISRDNAKNTVYLQMNSLKPEDTAVYYCAASSAHIFSYRYNFWGQGTQVTVSS", "polyreactivity (PSR sort gate)": "low polyreactivity"},
      {"sequence": "QVQLVESGGGLVQAGGSLRLSCAASGSTFTWYAMGWYRQAPGKERELVADISYGGGSTYYADSVKGRFTISRDNAKNTVYLPMNSLKPEDTAVYYCAAESIPYYRYDYWGQGTQVTVSS", "polyreactivity (PSR sort gate)": "low polyreactivity"},
      {"sequence": "QVQLVESGGGLVQAGGSLRLSCAASGSTFTWYGKGWYRQAPGKERELVAAISGSGGRTYYADSVKGRFTISRDNAKNTVYLQMNSLKPEDTAVYYCNADPANPFGTEFEYWGQGTQVTVSS", "polyreactivity (PSR sort gate)": "high polyreactivity"},
      {"sequence": "QVQLVESGGGLVQAGGSLRLSCAASGSTFTYYAMGWYRQAPGKEREWVAAISGGGDTYYADSVKGRFTISRDNAKNTVYLQMTSLKPEDTAVYYCNARVWAKSPRGSQYNMYDYWGQGTQVTVSS", "polyreactivity (PSR sort gate)": "high polyreactivity"},
      {"sequence": "QVQLVESGGGLVQAGGSLRLSCAASGSTFTYYAMGWYRQAPGNEREFVASLTYRGGRTNYADSVKGRFTISRDNATNTVYLQMNRQKPEDTAVYYCAARQRWTYAYDYWGQGTQVTVSS", "polyreactivity (PSR sort gate)": "high polyreactivity"},
      {"sequence": "QVQLVESGGGLVQAGGSLRLSCAASGSTFTYYAMGWYRQATGKETELVAAINIGGGGTYYADSVKGRFTISRDNAKNTVYLQMKSLKPEYTAVYYCATDIYFENGFGYWGQGTQVTVSS", "polyreactivity (PSR sort gate)": "low polyreactivity"},
      {"sequence": "QVQLVESGGGLVQAGGSLRLSCAASGSTFTYYTMGWYRQAPGKERELVAAISRTTGSTYYADSVKGRFTISRDNAKNTVYLQLNSLKPEDTAVDYCAAQSYKILLYFIGTAGDGYWGQGTQVTVSS", "polyreactivity (PSR sort gate)": "low polyreactivity"},
      {"sequence": "QVQLVESGGGLVQAGGSLRLSCAASGSTFVANTMGWYRQAPATERELVASITSGDSTNYADSVKGRFTISRDNAKNTVYFQMKSLKPEDTAVYYCAAETVWYYVGGQLIYYYWGQGTQVTVSS", "polyreactivity (PSR sort gate)": "low polyreactivity"},
      {"sequence": "QVQLVESGGGLVQAGGSLRLSCAASGSTFVAYAMGWYRQAPGKERELVAAISSVGRTNYADSVKGRFTISRDNAKYTVYLQMNSLKPEDTAVYYCAAVYVDRRKRSYYWGQGTQVTVSS", "polyreactivity (PSR sort gate)": "high polyreactivity"},
      {"sequence": "QVQLVESGGGLVQAGGSLRLSCAASGSTFVDKAMGWYRQAPGKERELVATISSGGSTYYADSVKGRFTISRDNAKNTVYLQMNSLKPEDTAVYYCNADGNKRYPWVDYWGQGTQVTVSS", "polyreactivity (PSR sort gate)": "low polyreactivity"},
      {"sequence": "QVQLVESGGGLVQAGGSLRLSCAASGSTFVDNALGGYRQAPGKERELVAGISIGGITYYADSVKGRFTISRDNAKNTVYLQMNSLKPEDTAVYYCAKRHKRTRNKYYYWGQGTQVTVSS", "polyreactivity (PSR sort gate)": "high polyreactivity"},
      {"sequence": "QVQLVESGGGLVQAGGSLRLSCAASGSTFVDYAMGWYRQAPGKERELVAAINERGGSTYYADSVKGRFTISRDNAKNTVYLQMNSLKPEDTAVYYCAARRRTRSSHSWYIRYGYWGQGTQVTVSS", "polyreactivity (PSR sort gate)": "low polyreactivity"},
      {"sequence": "QVQLVESGGGLVQAGGSLRLSCAASGSTFVFYAMGWYRPAPGKERELVASISFRGGSTRYADSVKGRFTISRDNAKNTVYLHMNSLKPEDTAVYYCNARPFYRYYYWGQGTQVTVSS", "polyreactivity (PSR sort gate)": "high polyreactivity"},
      {"sequence": "QVQLVESGGGLVQAGGSLRLSCAASGSTFVGNAMGWYRQAPGKERELVAAISSDSSTYYADSVKGRFTISRDNAKNTVYLQMNSLKPEDTAVYYCAEYYPGYGYGYWGQGTQVTVSS", "polyreactivity (PSR sort gate)": "low polyreactivity"},
      {"sequence": "QVQLVESGGGLVQAGGSLRLSCAASGSTFVGNAMGWYRQAPGKERELVAAITGGGGSTYYADSVKGRFTISRDNAKNTVYLQMNSLKPEDTAVYYCARDRTDYYVWYVRYYYWGQGTQVTVSS", "polyreactivity (PSR sort gate)": "low polyreactivity"},
      {"sequence": "QVQLVESGGGLVQAGGSLRLSCAASGSTFVGTALGWYRQAPGKVRELVATISNSGGRTYYADSVKGRFTISRDNAKNTVYLQMNSLKPEDTAVYYCAADHPVFGPGYSFDYWGQGTQVTVSS", "polyreactivity (PSR sort gate)": "low polyreactivity"},
      {"sequence": "QVQLVESGGGLVQAGGSLRLSCAASGSTFVGYAMGWYRQAPGKEREFVAAITRGGSTNYADSVKGRFTISRDNAKNTVYLQMNSLKPEDTAVYYCAARDRREGFNFDYWGQGTQVTVSS", "polyreactivity (PSR sort gate)": "low polyreactivity"},
      {"sequence": "QVQLVESGGGLVQAGGSLRLSCAASGSTFVGYAMGWYRQAPGKERELVAGITASGTNTYYADSVKGRFTISRDNAKNTVYLQMNSLKPEDTAVYYCAAAFVRPPPYVGYSRFDYWGQGTQVTVSS", "polyreactivity (PSR sort gate)": "high polyreactivity"},
      {"sequence": "QVQLVESGGGLVQAGGSLRLSCAASGSTFVGYFMGWYRQAPGKERELVAAITKIGGSTYYADSVKGSFTISRDNAKNNVYLQMNSLKPEDTAVYYCARTRSRWRYPIFYYWGQGTQVTVSS", "polyreactivity (PSR sort gate)": "high polyreactivity"},
      {"sequence": "QVQLVESGGGLVQAGGSLRLSCAASGSTFVGYTLGWSRQAPGNERELVASLSWDGGSTYYADSVKGRFTISRDNAKNTVYLQMNSLKPEDTAVYYCNADQGIIGAYTNSLPEYDYWGLGTQVTVSS", "polyreactivity (PSR sort gate)": "low polyreactivity"}
    ]}
  ]
}
